{
  "source": "patent US20230074436A1",
  "about": "(DENALI THERAPEUTICS, published 2023)",
  "key": {"[1]": {"molecular_target": "alpha-synuclein phosphorylated at serine 129 (human, UniProt P37840 1-140)", "assay": "SPR (Biacore), antibody captured, p129-Syn injected", "protocol": "Anti-mouse Fc antibody (obtained from GE Healthcare) was immobilized on the surface of a CM5 chip (obtained from GE Healthcare) through amine-coupling to reach about 6,000 to 8,000 response units (RU). The surface was activated by injection of a mixture of 1-ethyl-3-(3-dimethylaminopropyl)-carbodiimide (EDC) and N-hydroxysuccinimide (NETS), both obtained from GE Healthcare, for 7 minutes at room temperature. […] Both injections were done at room temperature.\nPurified rat anti alpha-synuclein antibody (10 μg/mL) was injected at room temperature and captured to reach 1,000 to 2,000 RU. […] Sensorgrams were fitted using a 1:1 Langmuir model to estimate kₒₙ and koff."}, "asyn_113-127_124G": {"molecular_target": "T1, asyn_113-127_124G (human)", "T1 construct": "substitution is already in the entry; also called pep13", "T1 peptide": "Biotin-LEDMPVDPDNEGYEM", "assay": "Ala-scan peptide ELISA, row E, run 1", "protocol": "(§1) 96-well Nunc plates were coated with 50 μL per well of 1 μg/mL streptavidin (from Jackson Immuno Research Laboratory) in PBS at 4° C. overnight. The plates were washed three times with PBST, and blocked with PBS containing 3% BSA at room temperature for 1 hour. The N-terminal biotinylated peptides were dissolved in Milli Q water to a concentration of 2 mg/mL, then further diluted to a concentration of 2 μg/mL with PBS. 50 μl of the diluted peptide was applied to the streptavidin-coated plates and incubated at 4° C. overnight. 2 μg/mL of biotinylated human alpha-synuclein was used as the positive control. The plates were washed three times with PBST before use. Purified antibody was diluted by serial dilution methods, from 20 μg/mL to 1 ng/mL, and 50 μL of the antibody solution was added to the peptide-coated wells. The plates were incubated for 1 hour at room temperature, then washed three times with PBST. Secondary detection antibody (goat anti-rat HRP (obtained from Southern Biotech)) was added with 1:5,000 dilutions and incubated for 1 hour at room temperature, then washed three times with PBST. Plates were developed with 50 μL/well of TMB substrate (Thermo Fisher) and quenched with 50 μL/well of 1 N sulfuric acid. The signal was quantified on a BioTek® plate reader at A450. A parallel repeat was performed for each peptide in a separate plate."}, "asyn_113-127_125A": {"molecular_target": "T2, asyn_113-127_125A (human)", "T2 construct": "substitution is already in the entry; also called pep15", "T2 peptide": "Biotin-LEDMPVDPDNEAAEM", "assay": "Ala-scan peptide ELISA, row E, run 1", "protocol": "as §1"}, "asyn_113-127_118A": {"molecular_target": "T3, asyn_113-127_118A (human)", "T3 construct": "substitution is already in the entry; also called pep7", "T3 peptide": "Biotin-LEDMPADPDNEAYEM", "assay": "Ala-scan peptide ELISA, row E, run 1", "protocol": "as §1"}, "asyn_113-127_116A [2]": {"molecular_target": "T4, asyn_113-127_116A (human)", "T4 construct": "substitution is already in the entry; also called pep5", "T4 peptide": "Biotin-LEDAPVDPDNEAYEM", "assay": "Ala-scan peptide ELISA, row E, run 1", "protocol": "as §1"}, "asyn_113-127_114A": {"molecular_target": "T5, asyn_113-127_114A (human)", "T5 construct": "substitution is already in the entry; also called pep3", "T5 peptide": "Biotin-LADMPVDPDNEAYEM", "assay": "Ala-scan peptide ELISA, row E, run 1", "protocol": "as §1"}, "asyn_113-127_126A [3]": {"molecular_target": "T6, asyn_113-127_126A (human)", "T6 construct": "substitution is already in the entry; also called pep16", "T6 peptide": "Biotin-LEDMPVDPDNEAYAM", "assay": "Ala-scan peptide ELISA, row E, run 1", "protocol": "as §1"}, "asyn_113-127_124P [4]": {"molecular_target": "T7, asyn_113-127_124P (human)", "T7 construct": "substitution is already in the entry; also called pep14", "T7 peptide": "Biotin-LEDMPVDPDNEPYEM", "assay": "Ala-scan peptide ELISA, row E, run 1", "protocol": "as §1"}, "asyn_113-127_113A [5]": {"molecular_target": "T8, asyn_113-127_113A (human)", "T8 construct": "substitution is already in the entry; also called pep2", "T8 peptide": "Biotin-AEDMPVDPDNEAYEM", "assay": "Ala-scan peptide ELISA, row E, run 1", "protocol": "as §1"}, "asyn_113-127_120A": {"molecular_target": "T9, asyn_113-127_120A (human)", "T9 construct": "substitution is already in the entry; also called pep9", "T9 peptide": "Biotin-LEDMPVDADNEAYEM", "assay": "Ala-scan peptide ELISA, row E, run 1", "protocol": "as §1"}, "asyn_113-127_115A": {"molecular_target": "T10, asyn_113-127_115A (human)", "T10 construct": "substitution is already in the entry; also called pep4", "T10 peptide": "Biotin-LEAMPVDPDNEAYEM", "assay": "Ala-scan peptide ELISA, row E, run 1", "protocol": "as §1"}, "asyn_113-127_122A [6]": {"molecular_target": "T11, asyn_113-127_122A (human)", "T11 construct": "substitution is already in the entry; also called pep11", "T11 peptide": "Biotin-LEDMPVDPDAEAYEM", "assay": "Ala-scan peptide ELISA, row E, run 1", "protocol": "as §1"}, "[7]": {"molecular_target": "biotinylated human alpha-synuclein (human, UniProt P37840 1-140)", "assay": "Ala-scan peptide ELISA, row E, run 1", "protocol": "as §1"}, "asyn_113-127_119A [8]": {"molecular_target": "T12, asyn_113-127_119A (human)", "T12 construct": "substitution is already in the entry; also called pep8", "T12 peptide": "Biotin-LEDMPVAPDNEAYEM", "assay": "Ala-scan peptide ELISA, row E, run 1", "protocol": "as §1"}, "asyn_113-127_117A": {"molecular_target": "T13, asyn_113-127_117A (human)", "T13 construct": "substitution is already in the entry; also called pep6", "T13 peptide": "Biotin-LEDMAVDPDNEAYEM", "assay": "Ala-scan peptide ELISA, row E, run 1", "protocol": "as §1"}, "asyn_113-127_121A [9]": {"molecular_target": "T14, asyn_113-127_121A (human)", "T14 construct": "substitution is already in the entry; also called pep10", "T14 peptide": "Biotin-LEDMPVDPANEAYEM", "assay": "Ala-scan peptide ELISA, row E, run 1", "protocol": "as §1"}, "asyn_113-127 [10]": {"molecular_target": "T15, asyn_113-127 (human)", "T15 construct": "also called pep1", "T15 peptide": "Biotin-LEDMPVDPDNEAYEM", "assay": "Ala-scan peptide ELISA, row E, run 1", "protocol": "as §1"}, "asyn_113-127_123A": {"molecular_target": "T16, asyn_113-127_123A (human)", "T16 construct": "substitution is already in the entry; also called pep12", "T16 peptide": "Biotin-LEDMPVDPDNAAYEM", "assay": "Ala-scan peptide ELISA, row E, run 1", "protocol": "as §1"}, "asyn_113-127_127A": {"molecular_target": "T17, asyn_113-127_127A (human)", "T17 construct": "substitution is already in the entry; also called pep17", "T17 peptide": "Biotin-LEDMPVDPDNEAYEA", "assay": "Ala-scan peptide ELISA, row E, run 1", "protocol": "as §1"}, "asyn_113-127_116A [11]": {"molecular_target": "T4, asyn_113-127_116A", "assay": "Ala-scan peptide ELISA, row F, run 1", "protocol": "as §1"}, "asyn_113-127_126A [12]": {"molecular_target": "T6, asyn_113-127_126A", "assay": "Ala-scan peptide ELISA, row F, run 1", "protocol": "as §1"}, "asyn_113-127_124P [13]": {"molecular_target": "T7, asyn_113-127_124P", "assay": "Ala-scan peptide ELISA, row F, run 1", "protocol": "as §1"}, "asyn_113-127_113A [14]": {"molecular_target": "T8, asyn_113-127_113A", "assay": "Ala-scan peptide ELISA, row F, run 1", "protocol": "as §1"}, "asyn_113-127_122A [15]": {"molecular_target": "T11, asyn_113-127_122A", "assay": "Ala-scan peptide ELISA, row F, run 1", "protocol": "as §1"}, "asyn_113-127_119A [16]": {"molecular_target": "T12, asyn_113-127_119A", "assay": "Ala-scan peptide ELISA, row F, run 1", "protocol": "as §1"}, "asyn_113-127_121A [17]": {"molecular_target": "T14, asyn_113-127_121A", "assay": "Ala-scan peptide ELISA, row F, run 1", "protocol": "as §1"}, "asyn_113-127 [18]": {"molecular_target": "T15, asyn_113-127", "assay": "Ala-scan peptide ELISA, row F, run 1", "protocol": "as §1"}},
  "note": "No end group written: not given here. *: point of attachment. Biotin = O=C1N[C@H]2[C@H](CS[C@H]2CCCCC(=O)*)N1",
  "data": [
    {"binder": "20H4 (antibody, rat IgG2b, V domains shown, also called clone 20H4; rat 20H4) VH: AVQLVESGGGLVQPKESLKISCAASGFTFSNAAMYWVRQAPGKGLELLARIRTKPNNYATYHADSVKGRFTISRDDSQSMVYLHMGNLKTEDTAMYYCTADMATGDYWGPGVMVTVSS VL: DIQMTQSPPVLSVSVGDRVTLSCKASQNINKNLDWYQQKHGEAPKPLIYSTNNLQTGVPSRFSGSGSGTDYTLTISSLQPEDVATYYCYQYKSAWTFGGGTKLELR", "values": [
      {"measurement": "Kd", "setting": "[1]", "result": 6.14, "unit": "nM"},
      {"measurement": "A450", "setting": "asyn_113-127_124G", "result": 0.214, "unit": "OD"},
      {"measurement": "A450", "setting": "asyn_113-127_125A", "result": 0.045, "unit": "OD"},
      {"measurement": "A450", "setting": "asyn_113-127_118A", "result": 0.324, "unit": "OD"},
      {"measurement": "A450", "setting": "asyn_113-127_116A [2]", "result": 0.296, "unit": "OD"},
      {"measurement": "A450", "setting": "asyn_113-127_114A", "result": 0.273, "unit": "OD"},
      {"measurement": "A450", "setting": "asyn_113-127_126A [3]", "result": 0.235, "unit": "OD"},
      {"measurement": "A450", "setting": "asyn_113-127_124P [4]", "result": 0.044, "unit": "OD"},
      {"measurement": "A450", "setting": "asyn_113-127_113A [5]", "result": 0.302, "unit": "OD"},
      {"measurement": "A450", "setting": "asyn_113-127_120A", "result": 0.2, "unit": "OD"},
      {"measurement": "A450", "setting": "asyn_113-127_115A", "result": 0.183, "unit": "OD"},
      {"measurement": "A450", "setting": "asyn_113-127_122A [6]", "result": 0.051, "unit": "OD"},
      {"measurement": "A450", "setting": "[7]", "result": 0.383, "unit": "OD"},
      {"measurement": "A450", "setting": "asyn_113-127_119A [8]", "result": 0.05, "unit": "OD"},
      {"measurement": "A450", "setting": "asyn_113-127_117A", "result": 0.304, "unit": "OD"},
      {"measurement": "A450", "setting": "asyn_113-127_121A [9]", "result": 0.249, "unit": "OD"},
      {"measurement": "A450", "setting": "asyn_113-127 [10]", "result": 0.297, "unit": "OD"},
      {"measurement": "A450", "setting": "asyn_113-127_123A", "result": 0.282, "unit": "OD"},
      {"measurement": "A450", "setting": "asyn_113-127_127A", "result": 0.248, "unit": "OD"},
      {"measurement": "A450", "setting": "asyn_113-127_116A [11]", "result": 0.172, "unit": "OD"},
      {"measurement": "A450", "setting": "asyn_113-127_126A [12]", "result": 0.149, "unit": "OD"},
      {"measurement": "A450", "setting": "asyn_113-127_124P [13]", "result": 0.044, "unit": "OD"},
      {"measurement": "A450", "setting": "asyn_113-127_113A [14]", "result": 0.151, "unit": "OD"},
      {"measurement": "A450", "setting": "asyn_113-127_122A [15]", "result": 0.05, "unit": "OD"},
      {"measurement": "A450", "setting": "asyn_113-127_119A [16]", "result": 0.05, "unit": "OD"},
      {"measurement": "A450", "setting": "asyn_113-127_121A [17]", "result": 0.153, "unit": "OD"},
      {"measurement": "A450", "setting": "asyn_113-127 [18]", "result": 0.149, "unit": "OD"}
    ]}
  ]
}
